From IntAct's records for PubMed 40088780

Biological target: tor1a_human TOR1A (UniProt O14656)

effect of a mutation on the interaction: decreasing interaction strength
Substance: Torsin-1A-interacting protein 2 (Homo sapiens), Q8NFQ8 R412G
